Changes are numbered by the printed parent chain. In names and notes the source's numbering stands.

The chains are these.
B1: Id_ii_S2_P5E.3_K5.2_C5.2_[C-2T]_[T-1C]_H5.2_A5.1_F5.1_T5.2_[T11A]_[A12C] (ssRNA)
RNA: UUUGAUUAAUAUGAUAUCGUUCUUUCUUCUAUAUUAUUAACUUCUUUCUCGAUAUCAUAUUAAUCUUU
B2: Id_ii_S2_P5E.3_K5.2_C5.2_[C-2G]_[T-1C]_H5.2_A5.1_F5.1_T5.2_[T11C] (ssRNA)
RNA: B1 RNA with U28G, A40C, C41A
B3: Id_ii_S2_P5E.3_K5.2_C5.2_[C-2T]_[T-1C]_H5.2_A5.1_F5.1_T5.2_[T11A]_[A12T] (ssRNA)
RNA: B1 RNA with C41U
B4: Id_ii_S2_P5E.3_K5.2_C5.2_[C-2T]_[T-1C]_H5.2_A5.1_F5.1_T5.2_[A12T] (ssRNA)
RNA: B1 RNA with A40U, C41U
B5: Id_ii_S2_P5E.3_K5.2_C5.2_[C-2T]_H5.2_A5.1_F5.1_T5.2_[T11C]_[A12G] (ssRNA)
RNA: B1 RNA with C29U, A40C, C41G
B6: Id_ii_S2_P5E.3_K5.2_C5.2_[C-2T]_[T-1A]_H5.2_A5.1_F5.1_T5.2_[T11C]_[A12G] (ssRNA)
RNA: B1 RNA with C29A, A40C, C41G
B7: Id_ii_S2_P5E.3_K5.2_C5.2_[C-2G]_H5.2_A5.1_F5.1_T5.2_[T11G]_[A12T] (ssRNA)
RNA: B1 RNA with U28G, C29U, A40G, C41U
B8: Id_ii_S2_P5E.3_K5.2_C5.2_[C-2G]_H5.2_A5.1_F5.1_T5.2_[T11C]_[A12T] (ssRNA)
RNA: B1 RNA with U28G, C29U, A40C, C41U
B9: Id_ii_S2_P5E.3_K5.2_C5.2_[C-2T]_H5.2_A5.1_F5.1_T5.2_[T11G]_[A12T] (ssRNA)
RNA: B1 RNA with C29U, A40G, C41U
B10: Id_ii_S2_P5E.3_K5.2_C5.2_[C-2T]_[T-1G]_H5.2_A5.1_F5.1_T5.2_[A12T] (ssRNA)
RNA: B1 RNA with C29G, A40U, C41U
B11: Id_ii_S2_P5E.3_K5.2_C5.2_[C-2G]_H5.2_A5.1_F5.1_T5.2_[T11A] (ssRNA)
RNA: B1 RNA with U28G, C29U, C41A
B12: Id_ii_S2_P5E.3_K5.2_C5.2_[C-2G]_[T-1C]_H5.2_A5.1_F5.1_T5.2_[T11A] (ssRNA)
RNA: B1 RNA with U28G, C41A
B13: Id_ii_S2_P5E.3_K5.2_C5.2_[C-2T]_[T-1A]_H5.2_A5.1_F5.1_T5.2_[T11C]_[A12T] (ssRNA)
RNA: B1 RNA with C29A, A40C, C41U
B14: Id_ii_S2_P5E.3_K5.2_C5.2_[C-2G]_[T-1C]_H5.2_A5.1_F5.1_T5.2_[A12C] (ssRNA)
RNA: B1 RNA with U28G, A40U
B15: Id_ii_S2_P5E.3_K5.2_C5.2_[C-2T]_[T-1A]_H5.2_A5.1_F5.1_T5.2_[T11A]_[A12T] (ssRNA)
RNA: B1 RNA with C29A, C41U
B16: Id_ii_S2_P5E.3_K5.2_C5.2_[C-2G]_H5.2_A5.1_F5.1_T5.2_[T11C]_[A12G] (ssRNA)
RNA: B1 RNA with U28G, C29U, A40C, C41G
B17: Id_ii_S2_P5E.3_K5.2_C5.2_[C-2T]_H5.2_A5.1_F5.1_T5.2_[T11C]_[A12C] (ssRNA)
RNA: B1 RNA with C29U, A40C
B18: Id_ii_S2_P5E.3_K5.2_C5.2_[C-2T]_[T-1A]_H5.2_A5.1_F5.1_T5.2_[A12T] (ssRNA)
RNA: B1 RNA with C29A, A40U, C41U
B19: Id_ii_S2_P5E.3_K5.2_C5.2_[C-2T]_[T-1G]_H5.2_A5.1_F5.1_T5.2_[T11A] (ssRNA)
RNA: B1 RNA with C29G, C41A
B20: Id_ii_S2_P5E.3_K5.2_C5.2_[C-2T]_[T-1A]_H5.2_A5.1_F5.1_T5.2_[T11G]_[A12T] (ssRNA)
RNA: B1 RNA with C29A, A40G, C41U
B21: Id_ii_S2_P5E.3_K5.2_C5.2_[C-2T]_[T-1C]_H5.2_A5.1_F5.1_T5.2_[T11C]_[A12T] (ssRNA)
RNA: B1 RNA with A40C, C41U
B22: Id_ii_S2_P5E.3_K5.2_C5.2_[C-2T]_[T-1G]_H5.2_A5.1_F5.1_T5.2_[A12C] (ssRNA)
RNA: B1 RNA with C29G, A40U
B23: Id_ii_S2_P5E.3_K5.2_C5.2_[C-2G]_[T-1C]_H5.2_A5.1_F5.1_T5.2_[T11A]_[A12T] (ssRNA)
RNA: B1 RNA with U28G, C41U
B24: Id_ii_S2_P5E.3_K5.2_C5.2_[C-2G]_H5.2_A5.1_F5.1_T5.2_[A12T] (ssRNA)
RNA: B1 RNA with U28G, C29U, A40U, C41U
B25: Id_ii_S2_P5E.3_K5.2_C5.2_[C-2G]_H5.2_A5.1_F5.1_T5.2_[T11C]_[A12C] (ssRNA)
RNA: B1 RNA with U28G, C29U, A40C
B26: Id_ii_S2_P5E.3_K5.2_C5.2_[C-2T]_[T-1A]_H5.2_A5.1_F5.1_T5.2_[T11G]_[A12C] (ssRNA)
RNA: B1 RNA with C29A, A40G

In this data set the target is T1, PUF4 RNA-binding domain (Saccharomyces cerevisiae, UniProt P25339 537-888).
T1 sequence: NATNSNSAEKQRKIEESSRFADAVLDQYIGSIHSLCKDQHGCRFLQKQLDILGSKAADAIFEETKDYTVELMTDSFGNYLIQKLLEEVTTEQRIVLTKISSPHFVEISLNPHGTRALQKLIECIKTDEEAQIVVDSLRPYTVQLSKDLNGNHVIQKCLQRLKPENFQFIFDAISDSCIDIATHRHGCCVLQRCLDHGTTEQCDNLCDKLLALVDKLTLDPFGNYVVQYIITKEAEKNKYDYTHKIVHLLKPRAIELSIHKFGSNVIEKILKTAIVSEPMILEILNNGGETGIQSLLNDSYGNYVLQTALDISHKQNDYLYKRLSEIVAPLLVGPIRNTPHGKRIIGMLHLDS
Description: Mg; RNA-MaP; 20 mM Na-HEPES pH 7.4, 30 mM KOAc, 0.75 mM MgCl2, 0.1% Tween-20, 5% glycerol, 0.1 mg/mL BSA, 2 mM DTT; 25 C; 0.0125-409.6 nM protein. The note with it: tags: N-His6-TEV cleaved; C-SNAP kept, Cy3B-labelled; label: tethered on chip by stalled RNA polymerase.
Broadly, the Kd is a measure of binding affinity in units of concentration. High values mean a looser complex, low ones a tighter complex. For B1, the dissociation constant Kd came out at 94.7 nM. This counts as double-digit nanomolar. In the case of B2 it was 546 nM. In the case of B3 it was 149 nM; in that of B4, 80.1 nM; in that of B5, 152 nM.

On to B6, for which binding was characterised by a dissociation constant (Kd) of 19.5 nM. Then B7, with 16.7 nM; and B8, with 27.5 nM; and B9, with 442 nM. In the case of B10 it was 0.297 nM; in that of B11, 21.3 nM; in that of B12, 394 nM. Then B13, with 6.8 nM; and B14, with 455 nM; and B15, with 21 nM. In turn, B16 displayed a Kd of 68.5 nM. Compared with the last molecule, the Kd is about 3.3-fold higher. The molecule B17 showed a Kd of 66.4 nM. In the case of B18 it was 19.2 nM; in that of B19, 0.435 nM; in that of B20, 41.6 nM.

In the case of B21, the affinity, expressed as Kd, was 82.2 nM.

As to B22, the Kd turned out to be 0.994 nM. Then B23, with 95.1 nM; and B24, with 11.7 nM. In the case of B25 it was 14.9 nM; in that of B26, 13.9 nM; in that of UCUCUUUGUAUUCGUAUCUCUU (ssRNA) [Ib_S1_P5E.1_K5.1_C5.1_H5.1_A5.1_[A7C]_F5.1_[T8G]_T5.1], 19.1 nM.
